Results from patent US20210246166A1 (Bayer, published 2021).
Bridge positions count the residues as written; N and C are the ends. Square brackets hold non-standard residues; d marks the D form. Ends that are not written are not given here. * marks the point of attachment. Piperidin‑4‑ylacetic acid = O=C(CC1CCNCC1)*; Oic = O=C(O)[C@@H]1C[C@@H]2CCCC[C@@H]2N1; Cyclopropylacetic acid = O=C(CC1CC1)*; Gly(cPent) = N[C@H](C(=O)O)C1CCCC1; NMeI = CC[C@H](C)[C@H](NC)C(=O)O; aIle = CC[C@@H](C)[C@H](N)C(=O)O; tBuAla = CC(C)(C)C[C@H](N)C(=O)O; Chg = N[C@H](C(=O)O)C1CCCCC1; NMeC = CN[C@@H](CS)C(=O)O; NMeA = CN[C@@H](C)C(=O)O; Sar = CNCC(=O)O

T1: recombinant rat MASP1 active protease (amino acids 302-704, C-terminal His Tag) (rat, UniProt Q8CHN8 302-704)
T1 sequence: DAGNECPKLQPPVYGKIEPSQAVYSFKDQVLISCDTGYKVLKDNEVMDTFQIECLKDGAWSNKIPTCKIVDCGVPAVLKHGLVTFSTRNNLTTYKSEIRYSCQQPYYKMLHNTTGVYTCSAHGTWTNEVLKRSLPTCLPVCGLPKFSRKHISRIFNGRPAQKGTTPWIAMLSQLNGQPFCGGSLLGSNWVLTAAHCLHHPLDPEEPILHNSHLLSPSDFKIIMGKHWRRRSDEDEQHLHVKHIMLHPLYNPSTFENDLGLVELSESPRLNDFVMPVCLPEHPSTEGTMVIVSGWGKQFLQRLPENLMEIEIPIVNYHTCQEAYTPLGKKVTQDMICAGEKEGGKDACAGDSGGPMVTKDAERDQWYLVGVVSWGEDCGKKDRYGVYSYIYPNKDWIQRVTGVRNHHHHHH

B1: Example 274: (Cyclopropylacetic acid)-IC+SRS-((tBu)A)-PPI-((N-Me)C)+I-NH2 (peptide)
peptide: {Cyclopropylacetic acid}-ICSRS[tBuAla]PPI[NMeC]I-NH2
modifications: disulfide 2-10
SMILES: CC[C@H](C)[C@H](NC(=O)[C@@H]1CSSC[C@H](NC(=O)[C@@H](NC(=O)CC2CC2)[C@@H](C)CC)C(=O)N[C@@H](CO)C(=O)N[C@@H](CCCNC(=N)N)C(=O)N[C@@H](CO)C(=O)N[C@@H](CC(C)(C)C)C(=O)N2CCC[C@H]2C(=O)N2CCC[C@H]2C(=O)N[C@@H]([C@@H](C)CC)C(=O)N1C)C(N)=O
B2: Example 270: AIC+SRSLP-(Oic)-(Chg)-C+IPD-NH2 (peptide)
peptide: AICSRSLP[Oic][Chg]CIPD-NH2
modifications: disulfide 3-11; N-terminus assumed
SMILES: CC[C@H](C)[C@H](NC(=O)[C@H](C)N)C(=O)N[C@H]1CSSC[C@@H](C(=O)N[C@H](C(=O)N2CCC[C@H]2C(=O)N[C@@H](CC(=O)O)C(N)=O)[C@@H](C)CC)NC(=O)[C@H](C2CCCCC2)NC(=O)[C@@H]2C[C@@H]3CCCC[C@@H]3N2C(=O)[C@@H]2CCCN2C(=O)[C@H](CC(C)C)NC(=O)[C@H](CO)NC(=O)[C@H](CCCNC(=N)N)NC(=O)[C@H](CO)NC1=O
B3: Example 277: ((N-Me)G)-IC+SRSLPPIC+(allo-I)-PD-NH2 (peptide)
peptide: [Sar]ICSRSLPPIC[aIle]PD-NH2
modifications: disulfide 3-11; N-terminus assumed
SMILES: CC[C@@H](C)[C@H](NC(=O)[C@@H]1CSSC[C@H](NC(=O)[C@@H](NC(=O)CNC)[C@@H](C)CC)C(=O)N[C@@H](CO)C(=O)N[C@@H](CCCNC(=N)N)C(=O)N[C@@H](CO)C(=O)N[C@@H](CC(C)C)C(=O)N2CCC[C@H]2C(=O)N2CCC[C@H]2C(=O)N[C@@H]([C@@H](C)CC)C(=O)N1)C(=O)N1CCC[C@H]1C(=O)N[C@@H](CC(=O)O)C(N)=O
B4: Example 275: G-((N-Me)I)-C+SRSLPPIC+IPD-OH (peptide)
peptide: G[NMeI]CSRSLPPICIPD-OH
modifications: disulfide 3-11; N-terminus assumed
SMILES: CC[C@H](C)[C@@H]1NC(=O)[C@@H]2CCCN2C(=O)[C@@H]2CCCN2C(=O)[C@H](CC(C)C)NC(=O)[C@H](CO)NC(=O)[C@H](CCCNC(=N)N)NC(=O)[C@H](CO)NC(=O)[C@@H](NC(=O)[C@H]([C@@H](C)CC)N(C)C(=O)CN)CSSC[C@@H](C(=O)N[C@H](C(=O)N2CCC[C@H]2C(=O)N[C@@H](CC(=O)O)C(=O)O)[C@@H](C)CC)NC1=O
B5: Example 254: AIC+SRSLPP-(Chg)-C+IPD-NH2 (peptide)
peptide: AICSRSLPP[Chg]CIPD-NH2
modifications: disulfide 3-11; N-terminus assumed
SMILES: CC[C@H](C)[C@H](NC(=O)[C@H](C)N)C(=O)N[C@H]1CSSC[C@@H](C(=O)N[C@H](C(=O)N2CCC[C@H]2C(=O)N[C@@H](CC(=O)O)C(N)=O)[C@@H](C)CC)NC(=O)[C@H](C2CCCCC2)NC(=O)[C@@H]2CCCN2C(=O)[C@@H]2CCCN2C(=O)[C@H](CC(C)C)NC(=O)[C@H](CO)NC(=O)[C@H](CCCNC(=N)N)NC(=O)[C@H](CO)NC1=O
B6: Example 260: A-((N-Me)I)-C+SRSLPPIC+IPD-NH2 (peptide)
peptide: A[NMeI]CSRSLPPICIPD-NH2
modifications: disulfide 3-11; N-terminus assumed
SMILES: CC[C@H](C)[C@@H]1NC(=O)[C@@H]2CCCN2C(=O)[C@@H]2CCCN2C(=O)[C@H](CC(C)C)NC(=O)[C@H](CO)NC(=O)[C@H](CCCNC(=N)N)NC(=O)[C@H](CO)NC(=O)[C@@H](NC(=O)[C@H]([C@@H](C)CC)N(C)C(=O)[C@H](C)N)CSSC[C@@H](C(=O)N[C@H](C(=O)N2CCC[C@H]2C(=O)N[C@@H](CC(=O)O)C(N)=O)[C@@H](C)CC)NC1=O
B7: Example 276: G-((N-Me)I)-C+SRSLPPIC+IPd-OH (peptide)
peptide: G[NMeI]CSRSLPPICIP[dD]-OH
modifications: disulfide 3-11; N-terminus assumed
SMILES: CC[C@H](C)[C@@H]1NC(=O)[C@@H]2CCCN2C(=O)[C@@H]2CCCN2C(=O)[C@H](CC(C)C)NC(=O)[C@H](CO)NC(=O)[C@H](CCCNC(=N)N)NC(=O)[C@H](CO)NC(=O)[C@@H](NC(=O)[C@H]([C@@H](C)CC)N(C)C(=O)CN)CSSC[C@@H](C(=O)N[C@H](C(=O)N2CCC[C@H]2C(=O)N[C@H](CC(=O)O)C(=O)O)[C@@H](C)CC)NC1=O
B8: Example 262: AIC+SRSLPP-(Cpg)-C+IPD-NH2 (peptide)
peptide: AICSRSLPP[Gly(cPent)]CIPD-NH2
modifications: disulfide 3-11; N-terminus assumed
SMILES: CC[C@H](C)[C@H](NC(=O)[C@H](C)N)C(=O)N[C@H]1CSSC[C@@H](C(=O)N[C@H](C(=O)N2CCC[C@H]2C(=O)N[C@@H](CC(=O)O)C(N)=O)[C@@H](C)CC)NC(=O)[C@H](C2CCCC2)NC(=O)[C@@H]2CCCN2C(=O)[C@@H]2CCCN2C(=O)[C@H](CC(C)C)NC(=O)[C@H](CO)NC(=O)[C@H](CCCNC(=N)N)NC(=O)[C@H](CO)NC1=O
B9: Example 261: G-((N-Me)I)-C+SRSLPPIC+IPD-NH2 (peptide)
peptide: G[NMeI]CSRSLPPICIPD-NH2
modifications: disulfide 3-11; N-terminus assumed
SMILES: CC[C@H](C)[C@@H]1NC(=O)[C@@H]2CCCN2C(=O)[C@@H]2CCCN2C(=O)[C@H](CC(C)C)NC(=O)[C@H](CO)NC(=O)[C@H](CCCNC(=N)N)NC(=O)[C@H](CO)NC(=O)[C@@H](NC(=O)[C@H]([C@@H](C)CC)N(C)C(=O)CN)CSSC[C@@H](C(=O)N[C@H](C(=O)N2CCC[C@H]2C(=O)N[C@@H](CC(=O)O)C(N)=O)[C@@H](C)CC)NC1=O
B10: Example 268: AIC+SRS-((tBu)A)-P-(Oic)-I-((N-Me)C)+IPD-NH2 (peptide)
peptide: AICSRS[tBuAla]P[Oic]I[NMeC]IPD-NH2
modifications: disulfide 3-11; N-terminus assumed
SMILES: CC[C@H](C)[C@H](NC(=O)[C@H](C)N)C(=O)N[C@H]1CSSC[C@@H](C(=O)N[C@H](C(=O)N2CCC[C@H]2C(=O)N[C@@H](CC(=O)O)C(N)=O)[C@@H](C)CC)N(C)C(=O)[C@H]([C@@H](C)CC)NC(=O)[C@@H]2C[C@@H]3CCCC[C@@H]3N2C(=O)[C@@H]2CCCN2C(=O)[C@H](CC(C)(C)C)NC(=O)[C@H](CO)NC(=O)[C@H](CCCNC(=N)N)NC(=O)[C@H](CO)NC1=O
B11: Example 253: ((N-Me)A)-IC+SRS-((tBu)A)-PPIC+IPD-NH2 (peptide)
peptide: [NMeA]ICSRS[tBuAla]PPICIPD-NH2
modifications: disulfide 3-11; N-terminus assumed
SMILES: CC[C@H](C)[C@H](NC(=O)[C@H](C)NC)C(=O)N[C@H]1CSSC[C@@H](C(=O)N[C@H](C(=O)N2CCC[C@H]2C(=O)N[C@@H](CC(=O)O)C(N)=O)[C@@H](C)CC)NC(=O)[C@H]([C@@H](C)CC)NC(=O)[C@@H]2CCCN2C(=O)[C@@H]2CCCN2C(=O)[C@H](CC(C)(C)C)NC(=O)[C@H](CO)NC(=O)[C@H](CCCNC(=N)N)NC(=O)[C@H](CO)NC1=O
B12: Example 259: (Piperidin-4-ylacetic acid)-IC+SRS-((tBu)A)-PPI-((N-Me)C)+I-NH2 (peptide)
peptide: {Piperidin‑4‑ylacetic acid}-ICSRS[tBuAla]PPI[NMeC]I-NH2
modifications: disulfide 2-10
SMILES: CC[C@H](C)[C@H](NC(=O)[C@@H]1CSSC[C@H](NC(=O)[C@@H](NC(=O)CC2CCNCC2)[C@@H](C)CC)C(=O)N[C@@H](CO)C(=O)N[C@@H](CCCNC(=N)N)C(=O)N[C@@H](CO)C(=O)N[C@@H](CC(C)(C)C)C(=O)N2CCC[C@H]2C(=O)N2CCC[C@H]2C(=O)N[C@@H]([C@@H](C)CC)C(=O)N1C)C(N)=O

The binders below were run against T1, recombinant rat MASP1 active protease … (assay: cell-based or functional assay).

**Q.** For B1, which “rat MASP1 IC50” value is on record?
**A.** 89 nM

**Q.** For B2, which “rat MASP1 IC50” value is on record?
**A.** 170 nM

**Q.** How did the “rat MASP1 IC50” value turn out when B3 was run?
**A.** 190 nM

**Q.** B4 was tested. Which “rat MASP1 IC50” value did it give?
**A.** 150 nM

**Q.** With B5 as the binder, how does the “rat MASP1 IC50” value read?
**A.** 320 nM

**Q.** How did the “rat MASP1 IC50” value turn out when B6 was run?
**A.** 160 nM

**Q.** B7 was tested. Which “rat MASP1 IC50” value did it give?
**A.** 200 nM

**Q.** For B8, which “rat MASP1 IC50” value is on record?
**A.** 490 nM

**Q.** B9 was tested. Which “rat MASP1 IC50” value did it give?
**A.** 300 nM

**Q.** For B10, which “rat MASP1 IC50” value is on record?
**A.** 100 nM

**Q.** Which “rat MASP1 IC50” value does the source give for B11 here?
**A.** 130 nM

**Q.** How did the “rat MASP1 IC50” value turn out when B12 was run?
**A.** 27 nM
